Measurements as given in US20050276799A1 (PDL BIOPHARMA, published 2005).
Changes are numbered by the printed parent chain. In names and notes the source's numbering stands. Where two headings read alike, the source gives them in different places.

Assays:
[1] = target: T1, recombinant, GPI-linked rhesus FcRn on cell line NS0 RhFcRn, clone R-3 (rhesus, UniProt H9Z6D2 24-297; Q6V7J5 21-119, GPI-linked); assay: IC50 of wild-type / IC50 of this antibody, same assay
T1 construct: Expressed from pDL410 on the surface of NS0 cells; not shown: human c-myc decapeptide flanked by linker peptides, then GPI linkage signal of human decay accelerating factor (vector p)

[2] = target: T2, recombinant, GPI-linked human FcRn on cell line NS0 HuFcRn (memb), clone 7-3 (human, UniProt P55899 24-297; P61769 21-119); assay: as above
T2 construct: Expressed from pDL208 on the surface of NS0 cells; also called human neonatal Fc receptor; not shown: human c-myc decapeptide flanked by linker peptides, then GPI linkage signal of human decay accelerating factor (vector p)

[3] = target: T2, recombinant, GPI-linked human FcRn on …; assay: as above; remark: listed apart in the source
[4] = target: T2, recombinant, GPI-linked human FcRn on …; assay: competition FACS vs biotinylated OST577-IgG2M3 on NS0 cells expressing human FcRn, FBB pH 6.0
[5] = target: T2, recombinant, GPI-linked human FcRn on …; assay: IC50 of wild-type / IC50 of this antibody, same assay; remark: listed apart in the source
[6] = target: T1, recombinant, GPI-linked rhesus FcRn on …; assay: as above; remark: listed apart in the source
[7] = target: T2, recombinant, GPI-linked human FcRn on …; assay: competition FACS vs biotinylated HuEP5C7-IgG2M3 on NS0 cells expressing human FcRn, FBB pH 6.0
[8] = target: T2, recombinant, GPI-linked human FcRn on …; assay: IC50 of wild-type / IC50 of this antibody, same assay; remark: listed apart in the source
[9] = target: T2, recombinant, GPI-linked human FcRn on …; assay: competition FACS vs biotinylated HuEP5C7-IgG2M3 on NS0 cells expressing human FcRn, FSB pH 6.0
[10] = target: T2, recombinant, GPI-linked human FcRn on …; assay: IC50 of wild-type / IC50 of this antibody, same assay; remark: listed apart in the source
[11] = target: T2, recombinant, GPI-linked human FcRn on …; assay: competition FACS vs biotinylated human IgG on NS0 cells expressing human FcRn, FBB pH 6.0
[12] = target: T2, recombinant, GPI-linked human FcRn on …; assay: IC50 of wild-type / IC50 of this antibody, same assay; remark: listed apart in the source
[13] = target: T2, recombinant, GPI-linked human FcRn on …; assay: competition FACS vs biotinylated human IgG on NS0 cells expressing human FcRn, FBB pH 6.0; remark: listed apart in the source
[14] = target: T2, recombinant, GPI-linked human FcRn on …; assay: IC50 of wild-type / IC50 of this antibody, same assay; remark: listed apart in the source
[15] = target: T2, recombinant, GPI-linked human FcRn on …; assay: competition FACS vs biotinylated human IgG on NS0 cells expressing human FcRn, FBB pH 6.0; remark: listed apart in the source
[16] = target: T2, recombinant, GPI-linked human FcRn on …; assay: IC50 of wild-type / IC50 of this antibody, same assay; remark: listed apart in the source
[17] = target: T2, recombinant, GPI-linked human FcRn on …; assay: competition FACS vs biotinylated human IgG on NS0 cells expressing human FcRn, FBB pH 6.0; remark: listed apart in the source

B1: Hu1D10-IgG4 wild-type (antibody)
heavy: not shown
light: DIQMTQSPSSLSASVGDRVTITCRASENIYSYLAWYQQKPGKAPKLLVSNAKTLAEGVPSRFSGSGSGKQFTLTISSLQPEDFATYYCQHHYGNSYPFGQGTKLEIKRTVAAPSVFIFPPSDEQLKSGTASVVCLLNNFYPREAKVQWKVDNALQSGNSQESVTEQDSKDSTYSLSSTLTLSKADYEKHKVYACEVTHQGLSSPVTKSFNRGEC
Question: Which “Relative Binding” value [1] does the source give for B1 here?
Answer: Its value is 1 ratio.

Question: And the “Relative Binding” value [2]?
Answer: Its value is 1 ratio.

B2: OST577-IgG2M3 wild-type (antibody)
heavy: QVQLVESGGGVVQPGRSLRLSCAASGFTFSRYGMHWVRQAPGKGLEWVAVISYDGSNKWYADSVKGRFTISRDNSKNTLFLQMHSLRAADTGVYFCAKDQLYFGSQSPGHYWGQGTLVTVSSASTKGPSVFPLAPCSRSTSESTAALGCLVKDYFPEPVTVSWNSGALTSGVHTFPAVLQSSGLYSLSSVVTVPSSNFGTQTYTCNVDHKPSNTKVDKTVERKCCVECPPCPAPPAAAPSVFLFPPKPKDTLMISRTPEVTCVVVDVSHEDPEVQFNWYVDGVEVHNAKTKPREEQFNSTFRVVSVLTVVHQDWLNGKEYKCKVSNKGLPAPIEKTISKTKGQPREPQVYTLPPSREEMTKNQVSLTCLVKGFYPSDIAVEWESNGQPENNYKTTPPMLDSDGSFFLYSKLTVDKSRWQQGNVFSCSVMHEALHNHYTQKSLSLSPSK
light: SYVLTQPPSVSVAPGQTARITCGGDNIGSKSVNWFQQKPGQAPVLVVYDDNERPSGISERFSGSNSGNTATLTISRVEAGDEADYYCQVWDSSSDHVVFGGGTKLTVLGQPKAAPSVTLFPPSSEELQANKATLVCLISDFYPGAVTVAWKADSSPVKAGVETTTPSKQSNNKYAASSYLSLTPEQWKSHRSYSCQVTHEGSTVEKTVAPTECS
notes: Human anti-HBV antibody, IgG2M3 (V234A, G237A) heavy, lambda-2 light
Question: For B2, which “Relative Binding” value [3] is on record?
Answer: Its value is 1 ratio.

Question: And the IC50 [4]?
Answer: The IC50 was 11.9 µg/mL.

Question: What about the “Relative Binding” value [5] of the same binder?
Answer: The value was 1 ratio.

Question: What about the “Relative Binding” value [6] of the same binder?
Answer: The value was 1 ratio.

Question: What about the IC50 [7] of the same binder?
Answer: Its IC50 is 9.4 µg/mL.

Question: What about the “Relative Binding” value [8] of the same binder?
Answer: Its value is 1 ratio.

Question: What about the IC50 [9] of the same binder?
Answer: Its IC50 is 10.7 µg/mL.

B3: OST577-IgG2M3 M428F (antibody)
heavy: B2 heavy with M429F
light: B2 light
Question: What does the source list for B3?
Answer: Relative Binding [3]: 3.2 ratio; Relative Binding [5]: 3.1 ratio; IC50 [7]: 2.97 µg/mL; IC50 [9]: 3.4 µg/mL

B4: OST577-IgG2M3 T250E/M428F (antibody)
heavy: B2 heavy with T251E, M429F
light: B2 light
Question: How did the “Relative Binding” value [3] turn out when B4 was run?
Answer: The value was 15 ratio.

Question: And the IC50 [7]?
Answer: Its IC50 is 0.639 µg/mL.

B5: M200-IgG4 wild-type (volociximab) (antibody)
heavy: not shown
light: QIVLTQSPAIMSASLGERVTMTCTASSSVSSNYLHWYQQKPGSAPNLWIYSTSNLASGVPARFSGSGSGTSYSLTISSMEAEDAATYYCHQYLRSPPTFGGGTKLEIKRTVAAPSVFIFPPSDEQLKSGTASVVCLLNNFYPREAKVQWKVDNALQSGNSQESVTEQDSKDSTYSLSSTLTLSKADYEKHKVYACEVTHQGLSSPVTKSFNRGEC
notes: Chimeric anti-α5β1 integrin; also called M200-IgG4 WT
Question: What does the source list for B5?
Answer: Relative Binding [10]: 1 ratio; IC50 [11]: 34.7 µg/mL

B6: M200-IgG4 T250Q/M428L (antibody)
heavy: not shown
light: B5 light
Question: How did the “Relative Binding” value [10] turn out when B6 was run?
Answer: Its value is 35 ratio.

Question: What about the IC50 [11] of the same binder?
Answer: Its IC50 is 1 µg/mL.

B7: Dac-IgG1 wild-type (daclizumab) (antibody)
heavy: not shown
light: DIQMTQSPSTLSASVGDRVTITCSASSSISYMHWYQQKPGKAPKLLIYTTSNLASGVPARFSGSGSGTEFTLTISSLQPDDFATYYCHQRSTYPLTFGQGTKVEVKRTVAAPSVFIFPPSDEQLKSGTASVVCLLNNFYPREAKVQWKVDNALQSGNSQESVTEQDSKDSTYSLSSTLTLSKADYEKHKVYACEVTHQGLSSPVTKSFNRGEC
notes: Humanized anti-CD25; also called Dac-IgG1 WT
Question: For B7, which “Relative Binding” value [12] is on record?
Answer: The value was 1 ratio.

Question: And the IC50 [13]?
Answer: Its IC50 is 20.4 µg/mL.

B8: Dac-IgG2M3 wild-type (antibody)
heavy: QVQLVQSGAEVKKPGSSVKVSCKASGYTFTSYRMHWVRQAPGQGLEWIGYINPSTGYTEYNQKFKDKATITADESTNTAYMELSSLRSEDTAVYYCARGGGVFDYWGQGTLVTVSSASTKGPSVFPLAPCSRSTSESTAALGCLVKDYFPEPVTVSWNSGALTSGVHTFPAVLQSSGLYSLSSVVTVPSSNFGTQTYTCNVDHKPSNTKVDKTVERKCCVECPPCPAPPAAAPSVFLFPPKPKDTLMISRTPEVTCVVVDVSHEDPEVQFNWYVDGVEVHNAKTKPREEQFNSTFRVVSVLTVVHQDWLNGKEYKCKVSNKGLPAPIEKTISKTKGQPREPQVYTLPPSREEMTKNQVSLTCLVKGFYPSDIAVEWESNGQPENNYKTTPPMLDSDGSFFLYSKLTVDKSRWQQGNVFSCSVMHEALHNHYTQKSLSLSPGK
light: B7 light
notes: also called Dac-IgG2M3 WT
Question: What does the source list for B8?
Answer: Relative Binding [14]: 1 ratio; IC50 [15]: 71.4 µg/mL

B9: Dac-IgG2M3 T250Q/M428L (antibody)
heavy: B8 heavy with T245Q, M423L
light: B7 light
Question: What does the source list for B9?
Answer: Relative Binding [14]: 18 ratio; IC50 [15]: 4.02 µg/mL

B10: Dac-IgG1 T250Q/M428L (antibody)
heavy: not shown
light: B7 light
notes: also called T250Q/M428L daclizumab
Question: Which “Relative Binding” value [12] does the source give for B10 here?
Answer: The value was 33 ratio.

Question: What about the IC50 [13] of the same binder?
Answer: Its IC50 is 0.626 µg/mL.

B11: HuM291-IgG2M3 wild-type (visilizumab) (antibody)
heavy: QVQLVQSGAEVKKPGASVKVSCKASGYTFISYTMHWVRQAPGQGLEWMGYINPRSGYTHYNQKLKDKATLTADKSASTAYMELSSLRSEDTAVYYCARSAYYDYDGFAYWGQGTLVTVSSASTKGPSVFPLAPCSRSTSESTAALGCLVKDYFPEPVTVSWNSGALTSGVHTFPAVLQSSGLYSLSSVVTVPSSNFGTQTYTCNVDHKPSNTKVDKTVERKCCVECPPCPAPPAAAPSVFLFPPKPKDTLMISRTPEVTCVVVDVSHEDPEVQFNWYVDGVEVHNAKTKPREEQFNSTFRVVSVLTVVHQDWLNGKEYKCKVSNKGLPAPIEKTISKTKGQPREPQVYTLPPSREEMTKNQVSLTCLVKGFYPSDIAVEWESNGQPENNYKTTPPMLDSDGSFFLYSKLTVDKSRWQQGNVFSCSVMHEALHNHYTQKSLSLSPSK
light: DIQMTQSPSSLSASVGDRVTITCSASSSVSYMNWYQQKPGKAPKRLIYDTSKLASGVPSRFSGSGSGTDFTLTISSLQPEDFATYYCQQWSSNPPTFGGGTKVEIKRTVAAPSVFIFPPSDEQLKSGTASVVCLLNNFYPREAKVQWKVDNALQSGNSQESVTEQDSKDSTYSLSSTLTLSKADYEKHKVYACEVTHQGLSSPVTKSFNRGEC
notes: Humanized anti-CD3; also called HuM291-IgG2M3 WT; Nuvion
Question: With B11 as the binder, how does the “Relative Binding” value [16] read?
Answer: Its value is 1 ratio.

Question: What about the IC50 [17] of the same binder?
Answer: The IC50 was 42.2 µg/mL.

B12: HuM291-IgG2M3 T250Q/M428L (antibody)
heavy: B11 heavy with T249Q, M427L
light: B11 light
Question: How did the “Relative Binding” value [16] turn out when B12 was run?
Answer: The value was 42 ratio.

Question: And the IC50 [17]?
Answer: Its IC50 is 0.994 µg/mL.
